Results on 21 sequences are retold here after the DeepSol protein solubility set.

The nature of this data set: soluble on expression in E. coli; label from the status in PepcDB or PDB records.
As to “MTTETRSLYSQLPAIDRLLRDSSFLSLRDTYGHTRVVELLRQMLDEAREVIRGSQTLPAWCENWAQEVDARLTKEAQSALRPVINLTGTVLHTNLGRALQAEAAVEAVAQAMRSPVTLEYDLDDAGRGHRDRALAQLLCRITGAEDACIVNNNAAAVLLMLAATASGKEVVVSRGELVEIGGAFRIPDVMRQAGCTLHEVGTTNRTHANDYRQAVNENTALLMKVHTSNYSIQGFTKAIDEAELVALGKELDVPVVTDLGSGSLVDLSQYGLPKEPMPQELIAAGVSLVSFSGDKLLGGPQAGIIVGKKEMIARLQSHPLKRALRADKMTLAALEATLRLYLHPEALSEKLPTLRLLTRSAEVIQIQAQRLQAPLVAHYGAEFAVQVMPCLSQIGSGSLPVDRLPSAALTFTPHDGRGSHLESLAARWRELPVPVIGRIYDGRLWLDLRCLEDEQRFLEMLLK”, the “soluble on expression in E. coli” value is “not soluble”.

As to “SLIENVDAQADSSWPHRGQIEVRNLTVKYTEAGHAVLKNLSFSAEGRQRVGILGRTGSGKSSLFNALLKLVYTDGEISIDGVNWNKMPLEKWRKAFGVVPQKVFIFTGPLRMNLDPYGCHSDEELWRVAEEVGLKTVIEQFPDKLDFQLEYGGYVLSNGHKQLICLARSILSGARILLLDEPSAHLDPVTIKVLKKTLRQSFSTCTILLSEAKVEPLLECDSFLMMDKGQVKTYDSIQKLLNETSDLKQAISPAE”, the “soluble on expression in E. coli” value is listed as “soluble”.

Consider “MGSDKIHHHHHHLYRIFRPIARFIVWVLNGHLHVHHKERLPEGTYILVAPHRNWWEPILFALAASPTEFMFMTKQELFKNPVLRWILNNAHAFPVNREHPSPSVIKIPVRGLKSEGLSLIMFPSGTRHSASLKSGALVIARMSGRPLLPAVYQGPLTFKGVLQRKGIEINFGNPIVIDRKTKLTPETEAAYNQQLEDAWKQIDQELDPDFHYEAK”, for which the “soluble on expression in E. coli” value was “not soluble”.

For the sequence “EQISISSPRKRIYHNILETIGGTPLVELHGVTEHPRIKKGTRILVKLEYFNPMSSVKDRVGFNIVYQAIKDGRLKPGMEIIESTSGNTGIALCQAGAVFGYRVNIAMPSTMSVERQMIMKAFGAELILTEGKKGMPGAIEEVNKMIKENPGKYFVANQFGNPDNTAAHHYTANEIWEDTDGEVDIVVSAVGTSGTVIGVAEKLKEKKKGIKIIAVEPEESAVLEGKAKGPHGIQGIGAGFIPDIYKKEFVDEIIPIKTQDAWKMARAVVKYDGIMCGMSSGAAILAGLKEAEKPENEGKTIVIIVPSCGERYLSTDLYKIKDEGTKIQILDSLLNEHH”, the “soluble on expression in E. coli” value is recorded as “soluble”.

As for “MKVLFVYAGMHPAHEPFVEAVKADVYPAYHKDVNGFVKFVEGLKMAREYPDYDVYILEGGMPMFPMYLRKKLFRKNGFVVGLLADETFINLVERQPHYSTAETLIHRISAKVLDAAIAVSPFVKEYAEKIIDVPIEVVRPAIPKDSYEKLGKVKPNLESNVIVSVGQPRFSIGMDVLVEQFRIAKKQIPDLELWIVGKGHPKEYERVEGVKVLGYVEDLSEVFEEASLFVHAGRCSAYPVATLEAMRAGLPVVVSTMTGTKEIVERVEEQVKREFGLNYDGNKFIQPLNRIFEGIVEYFKLDSEVRRIMSELYKKESEEFEPGKRGREFKEKFKKLLANFNNKEVP”, the “soluble on expression in E. coli” value was “not soluble”.

As to “MKRSSVFSFLVAFLLVAGCSHKMDNKTVAGDVSAKTVQTAPVTTEPAPEKEEPKQEPAPVVEEKPAVESGTIIASIYFDFDKYEIKESDQETLDEIVQKAKENHMQVLLEGNTDEFGSSEYNQALGVKRTLSVKNALVIKGVEKDMIKTISFGETKPKCAQKTRECYKENRRVDVKLMK”, the “soluble on expression in E. coli” value is given as “not soluble”.

Turning to “MSLRTTDIRVRDLYFEYEDFRYRTPIKFGGVALGRVTLLNVRMTVESAAGKAATGFGSMPLGNVWAYPSRLLTYDQTLGAMRFLASRIADGYRLCGLSGHPIDITHQLEPELLLAGNDFTAIHRPSDPVPKLAVLVVASAFDAALHDAYGKLHGLNCFRTYTREFLPDDLGHYLGAEFNGLHLDDFITHEPKPSMPLYHLVGALDPITPEDVTQPVGDGLPEHLAEWITRDGLTHLKIKLNGDDLGWDVERCVRINAVAEDAQRARGVTTWWYSLDFNERCQNVGYLIEFLQKLRERTPAGYDRVQYVEQPTARDLNAHPENKMHAAAKLKPVVIDESLLDLESLKLSMEMGYTGVAFKACKGQTQTLLLAAAAQKYGLFRCVQDLTCVGASLIHSAGLAAHIPGVAAIESNGRQYCPTANVAWDAKFPGVFTITGGSMNTALLNGVGLGAVSEGHHHHHH”, the “soluble on expression in E. coli” value is given as “soluble”.

On to “SAVKAQVLYDFTAEPGNNELTVHEGETLTITNQNVGGGWVEAQNSRGNVGLVPVDYVEVNSASAQAPATQYIDARNQGNNNSTANTQGVNGNEAWTATTWSNSYPADNWNYTEQEPAGNNGSVYSFDEEWDDDSDDGKSTGGYGGSQAEDGGTMQRSGAHSTMKLSLNKFPGFSKTPNPEVYLLTKHITKGNDRLSVYPGEVGPVWLYPQTQLDCVVADPKKGSKMYGLKSYIEYQITPNTTNRPVNHRYKHFDWLYERLVEKFACALPVPGLPDKQVTGRFEEEFIKMRMERLQGWMSRMCRHPVISNSEVFQLFLNYRDEKEWKLGKRKAEKDETVGVKIFSTIDPELPELDPAQVEQKYEVYNQFTRSMDNSVKELLAVGNLHWKRCTGPLQKEYRQIGKAFQNMSSVFNTSGYPRESTLTEALTATGKTYEEIAEVIAAQPRKDLHFLLETNNEYKGLLGCFPDTIGVHKAAIDKVKEADHLVMTNKISQQDKHTMEKNLSTMSYALQAEMNHFHSNRIYDYNRLMQFYLEEQVKFYETIAEKLKKALGQYTTI”, for which the “soluble on expression in E. coli” value is “soluble”.

“GSHMTAEADTSSELAKKSKEVFRKEMSQFIVQCLNPYRKPDCKVGRITTTEDFKHLARKLTHGVMNKELKYCKNPEDLECNENVKHKTKEYIKKYMQKFGAVYKPKEDTELE”: the “soluble on expression in E. coli” value is “soluble”.

As to “NVRVITDENWRELLEGDWMIEFYAPWCPACQNLQPEWESFAEWGEDLEVNIAKVDVTEQPGLSGRFIINALPTIYHCKDGEFRRYQGPRTKKDFINFISDKEWKSIEPVSSWF”, the “soluble on expression in E. coli” value is on record as “soluble”.

On to “LADSIVPRQQWAAIEPRRQIKMNGRADEIFLWQTGPDTCSLMGLTADKCQGCLQDSSCTEQIVKALQDADFKEGNDDIKYNFLIDQDGVIYEGRGWGVVGQHTKGRDSHSIGVAVIGDFGKKEPSQALQDALSKLIICGQAAEELSSGARLRTTPAMSGQAFYDMLDRCDGLCLDD”, for which the “soluble on expression in E. coli” value was “soluble”.

For the sequence “MPEEDLVELKFRLYDGSDVGPFQYSPTATVSMLKERIVSEWPKDKKIVPKSASDIKLINAGKILENGKTVAQCKAPFDDLPKSVITMHVVVQLSPTKARPEKKIEKEEAPQRSFCSCTIM”, the “soluble on expression in E. coli” value was “soluble”.

For the sequence “MGSDKIHHHHHHMATHNHTLTMEWIVDRTRTVYSLPYFYERLNEAINHPRSSIDDVARIIIDDQGLTARILKLANSPMFGFFSKVDSISKAVTIIGTQQLRDLALAASVMDVFKDIPRELMDMVLFWRHSIACGIVARNLAIYLRESNVERFFVAGILHDVGQLVMCTAIPEKVSEVLARNRLESRFLDATERDALGFDHAALGGALLRAWKIPATINEPVAYHHEPGKAEQFSLEVSIIHLADIICQALGYGASGEGGVPLLDPAAWDRLGVPVSILTTIVKQSEPQVEETFAILVEG”, the “soluble on expression in E. coli” value is given as “not soluble”.

With “MQRIPCVLMRGGTSKGPFFHAWDLPANVVERDELLINLMGSGHELEIDGIGGGSPQTSKVAIISPSLHADADVDYLFVQVMVAQRRVDTAPNCGNMLCAVGPFAIEQGLVKGQEGKTLVRIRNLNTGTFVNSLVETPGGIVRYEGRTAIDGVPGTAAPVHLTFLDAVGSKTGKLFPTGKAQDVIDGVPVTCIDMAMPMMVVEASQLGVSGSETPAQLDANSALLERLEALRLKAGKAMGLGDVSGMVIPKPVLVSKPRYDGTLQVRYFMPHNCHRALAITGAVGLATACVSPGTVIADLLGEGAQQLAQVRLEHPSGGIDVALTRSGAEGQTIQASVVRTARRLFSGFVYAPTFRRLAGLEHHHHHH”, the “soluble on expression in E. coli” value was “soluble”.

As to “MPITKFIWSPSGTGLSEHAWATSESTGAAWVGNDAAAHISLLRSTVAEELAVPLEQAGMDAATMQRAVDTAIDTWGLRGQAEQDPMTLSSGQTRRLAIAGALITRPEALVLDCPTDGLDTEAIEILHRIVDSFPGNVTVYDRMHTALATTAAEQLRLTSSGDLVPEPAPDPVDTVSARFTPIDLSTDHGPLLCAKNLRIPRGATTVGPISCEVSPSSVTHLAGLNGTGKTSFFLAALGLVASTGTLQVADGVTMGWAPADMDSALSRRTVATELTVGATPELAQAAIEFMGLEQWADTHPLDVPAAWRRFVLIAAALVRGPHLLLLDEPTVNLDAPNHGHLSLLMHRYCAGEFHRMAGLDLGGHHPAVLFTCHDARYAQAVSTAEIRI”, the “soluble on expression in E. coli” value is given as “not soluble”.

Consider “MRREALKTAVLKIMIEKMELKNVTHLEETMRLNQDLYIDSVMMLQLIVYIEMDVKLCVPEDEVDPKAFLTVGSLLDFMEELEPLQEVNVNN”, for which the “soluble on expression in E. coli” value is on record as “not soluble”.

For the sequence “MVAKDYPFYLTVKRANCSLEAPLGSGVAKDEEPSNKRVKPLSRVTSLANLIPPVKTTPLKRFSQTLQRSISFRSESRPDILAPRAWSRNATSSSTKRRDSKLWSETFDVCVNQVLTAKEIKRQEAIFELSQGEEDLIEDLKLAKKAYHDPMLKLSIMTEQELNQIFGTLDSLIPLHEELLSQLRDVRKPDGSTEHVGPILVGWLPCLSSYDSYCSNQVAAKALLDHKKQDHRVQDFLQRCLESPFSRKLDLWNFLDIPRSRLVKYPLLLREILRHTPNDNPDQQHLEEAINIIQGIVAEINTKTGESECRYYKERLLYLEEGQKDSLIDSSRVLCCHGELKNNRGVKLHVFLFQEVLVITRAVTHNEQLCYQLYRQPIPVKDLTLEDLQDGEVRLGGSLRGAFSNNERVKNFFRVSFKNGSQSQTHSLQANDTFNKQQWLNCIRQAKETVLSAAGQAGLLDSEGLVQGPGTENREPQGETKLEQMDQSDSESDCSMDTSEVSLECERMEQTDASCANSRPEESV”, the “soluble on expression in E. coli” value is “soluble”.

Consider “PFEIVFEGAKEFAQLIDTASKLIDEAAFKVTEDGISMRAMDPSRVVLIDLNLPSSIFSKYEVVEPETIGVNLDHLKKILKRGKAKDTLILKKGEENFLEITIQGTATRTFRVPLIDVEEMEVDLPELPFTAKVVVLGEVLKAAVKAASLVSDSIKFIARENEFIMKAEGETQEVEIKLTLEDEGLLDIEVQEETKSAYGVSYLSDMVKGLGKADEVTIKFGNEMPMQMEYYIRDEGRLTFLLAPRVEE”, for which the “soluble on expression in E. coli” value is recorded as “soluble”.

As to “MSLEVLATFLYKFNGWSFLGRVLQNLSKNFDFTDREKVDTIVDIMSMLTKVVGEVSVEDSKHALTSMSAYTDDSDVLEVIFRLFEQSLHSRNIRMIESILNLLTQLVPIFSYRIWPAFSKSALLFDGTREGFATVIFGSIEMVNGDFRLTIALAKLTDALVYDCLTLDNAVPSKVKEAVLKKLVSHLIAVMESYAQEGHHHHHH”, the “soluble on expression in E. coli” value is reported as “soluble”.

Regarding “MGSDKIHHHHHHMAFNQRTVVMIGPGEHYVTAKNEVIKTLLGSCVAVCLYDPKAQVIGMNHFLLAADRRKFTHFLDSRAGYYGVHAMEILINAMLKRGAQRKYLQSKIFGGANVLSLCADNILNHYDIGGMNIDFVRHFLQRERIPIISEDIGGHCGRVIYFDPTDYSVYRSLIEHKYEEIASLQDEEYRYFNQASEDIHSSGVPVVIWSD”, the “soluble on expression in E. coli” value is on record as “not soluble”.

As to “MAHHHHHHMARRLQQAWRAFAARRERRYRAAAVAQCARKRLEREEVWQLVWQDQFTELDMLCMLERQYIEEQQHVKRVRLYKYLCDPNGATNDDCGTQTPGAFNADADLLKWATLYDE”, the “soluble on expression in E. coli” value is given as “not soluble”.
